The results in this text go back to patent US20250249092A1 (TORAY INDUSTRIES, published 2025).

Experiment [1] concerns the target T1, CAPRIN-1 on the cell membrane surface of mouse cancer cells (mouse, UniProt Q60865 2-707).
T1 construct: whole, on cells; also called CAPRIN-1 protein
T1 sequence (looked up): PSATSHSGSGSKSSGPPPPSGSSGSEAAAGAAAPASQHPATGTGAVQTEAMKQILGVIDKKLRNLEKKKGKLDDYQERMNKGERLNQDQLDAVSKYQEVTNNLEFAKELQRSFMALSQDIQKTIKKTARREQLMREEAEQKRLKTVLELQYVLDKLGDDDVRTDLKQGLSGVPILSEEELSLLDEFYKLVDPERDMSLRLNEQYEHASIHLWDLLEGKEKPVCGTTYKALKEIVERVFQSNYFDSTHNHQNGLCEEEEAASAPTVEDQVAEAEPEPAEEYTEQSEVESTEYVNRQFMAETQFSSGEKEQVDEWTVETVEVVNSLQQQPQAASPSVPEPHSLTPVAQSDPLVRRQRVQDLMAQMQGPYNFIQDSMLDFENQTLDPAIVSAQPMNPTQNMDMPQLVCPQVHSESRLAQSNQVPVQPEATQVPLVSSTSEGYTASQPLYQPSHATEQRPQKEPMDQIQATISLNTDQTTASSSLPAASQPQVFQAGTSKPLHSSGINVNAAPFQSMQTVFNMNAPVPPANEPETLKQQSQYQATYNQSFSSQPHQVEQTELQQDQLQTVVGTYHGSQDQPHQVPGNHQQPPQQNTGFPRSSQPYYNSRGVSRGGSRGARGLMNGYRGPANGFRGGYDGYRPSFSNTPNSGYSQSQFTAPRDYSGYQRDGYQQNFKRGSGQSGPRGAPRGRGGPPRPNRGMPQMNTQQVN
Briefly: 4T1 cells.

In experiment [2] the target is T2, CAPRIN-1 on the cell membrane surface of human cancer cells (human, UniProt Q14444 2-709).
T2 construct: whole, on cells; also called CAPRIN-1 protein
T2 sequence (looked up): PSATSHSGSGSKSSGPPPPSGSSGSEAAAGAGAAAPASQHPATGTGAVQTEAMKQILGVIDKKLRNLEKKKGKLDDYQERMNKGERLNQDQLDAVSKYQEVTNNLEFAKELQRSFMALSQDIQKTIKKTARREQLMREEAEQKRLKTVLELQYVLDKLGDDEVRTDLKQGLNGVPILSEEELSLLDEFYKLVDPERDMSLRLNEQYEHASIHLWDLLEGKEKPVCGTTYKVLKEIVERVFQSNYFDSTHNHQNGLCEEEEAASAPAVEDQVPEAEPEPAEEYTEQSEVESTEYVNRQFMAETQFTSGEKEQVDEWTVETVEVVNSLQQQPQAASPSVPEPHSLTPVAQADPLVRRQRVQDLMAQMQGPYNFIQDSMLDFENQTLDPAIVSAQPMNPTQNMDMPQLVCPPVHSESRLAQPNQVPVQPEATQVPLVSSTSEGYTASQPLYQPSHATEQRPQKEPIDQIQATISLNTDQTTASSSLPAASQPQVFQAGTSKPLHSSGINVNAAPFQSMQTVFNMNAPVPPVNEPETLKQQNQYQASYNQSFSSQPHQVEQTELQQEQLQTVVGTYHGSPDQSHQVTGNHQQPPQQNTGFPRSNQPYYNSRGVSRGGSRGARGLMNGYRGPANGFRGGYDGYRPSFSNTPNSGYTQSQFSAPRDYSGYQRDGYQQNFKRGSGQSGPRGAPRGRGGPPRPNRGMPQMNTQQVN
Briefly: BT474 cells, as shown in Example 5.

B1: Conjugate 31 (antibody, V domains shown)
VH: AVTLDESGGGLQTPGGGLSLVCKASGFTFSSFDMGWVRQAPGKGLEFVAQINDAGSRTWYATAVKGRATISRDNGQTTVRLQLNNLRAEDTGTYYCTRGSGYVGAGAIDAWGHGTEVIVS
VL: AALTQPSSVSANPGETVKITCSGGSGYYGWYQQQKSPGSAPVTVIYQNDKRPSDIPSRFSGSGSGSTNTLTITGVQAEDEAVYFCGRYDSTDSGIFGAGTTLTVL
notes: mouse chimeric antibody #3 (mouse IgG constant regions) + resiquimod, MC-Val-Cit-PAB linker
As for B1, the binding result in experiment [1] is reported as “binds”.

B2: Conjugate 35 (antibody, V domains shown)
VH: AVTLDESGGGLQTPGGGLSLVCKASGFTFSSFDMGWVRQAPGKGLEFVAQINDAGSRTWYATAVKGRATISRDNGQTTVRLQLNNLRAEDTGTYYCTRGSGYVGAGAIDAWGHGTEVIVS
VL: AALTQPSSVSANPGETVKITCSGGSGYYGWYQQQKSPGSAPVTVIYQNDKRPSDIPSRFSGSGSGSTNTLTITGVQAEDEAVYFCGRYDSTDSGIFGAGTTLTVL
notes: mouse chimeric antibody #3 (mouse IgG constant regions) + resiquimod derivative, SATA and SMCC linkers
For the molecule B2, the binding result in experiment [1] is reported as “binds”.

B3: Conjugate 29 (antibody, V domains shown)
VH: AVTLDESGGGLQMSRGGLSLVCKASGFDFSSYQMNWIRQAPGKGLEFVAAINKFGNSTGHGAAVKGRVTISRDNGQSTVRLQLNNLRAEDTAIYFCTKHAYGYCGSGTWCAAGEIDAWGHGTEVIVSS
VL: QAASTQPSSVSANPGETVEITCSGGGSYSYGWFQQKSPGSAPVTVIYYNNKRPSDIPSRFSGSKSGSTGTLTITGVQADDEAVYYCGSGDSTDTAVFGAGTTLTVLG
notes: mouse chimeric antibody #1 (mouse IgG constant regions) + resiquimod, MC-Val-Cit-PAB linker
Take B3: in experiment [1], the binding result is “binds”.

B4: Conjugate 33 (antibody, V domains shown)
VH: AVTLDESGGGLQMSRGGLSLVCKASGFDFSSYQMNWIRQAPGKGLEFVAAINKFGNSTGHGAAVKGRVTISRDNGQSTVRLQLNNLRAEDTAIYFCTKHAYGYCGSGTWCAAGEIDAWGHGTEVIVSS
VL: QAASTQPSSVSANPGETVEITCSGGGSYSYGWFQQKSPGSAPVTVIYYNNKRPSDIPSRFSGSKSGSTGTLTITGVQADDEAVYYCGSGDSTDTAVFGAGTTLTVLG
notes: mouse chimeric antibody #1 (mouse IgG constant regions) + resiquimod derivative, SATA and SMCC linkers
With B4, in experiment [1], the binding result was “binds”.

B5: Conjugate 8 (antibody, human IgG1, V domains shown)
VH: EQSLVESGGGLVQPGGSLRLSCAASGFSLSSHSLGWVRQAPGKGLEWIGDIRSGGSAYYANWAKGRFTISRDNSKNTLYLQMNSLRAEDTAVYYCTRTNGPSDLTNRLDLWGQGTLVTVSS
VL: QVLTQSPSSLSASVGDRVTINCQASQSLYNNENLAWFQQKPGKVPKRLIYGASTLASGVSSRFSGSGSGTEFTLTISSLQCEDFAIYYCLGEFSCGSADCFAFGGGTKVEIK
notes: humanized antibody #2 (human IgG1) + resiquimod, MC-Val-Cit-PAB linker
For the molecule B5, the binding result in experiment [2] is “binds”.

B6: Conjugate 30 (antibody, V domains shown)
VH: EQSLVESGGGLVQPGGSLRLSCAASGFSLSSHSLGWVRQAPGKGLEWIGDIRSGGSAYYANWAKGRFTISRDNSKNTLYLQMNSLRAEDTAVYYCTRTNGPSDLTNRLDLWGQGTLVTVSS
VL: QVLTQSPSSLSASVGDRVTINCQASQSLYNNENLAWFQQKPGKVPKRLIYGASTLASGVSSRFSGSGSGTEFTLTISSLQCEDFAIYYCLGEFSCGSADCFAFGGGTKVEIK
notes: mouse chimeric antibody #2 (mouse IgG constant regions) + resiquimod, MC-Val-Cit-PAB linker
On to B6, for which the binding result in experiment [1] was “binds”.

B7: Conjugate 34 (antibody, V domains shown)
VH: EQSLVESGGGLVQPGGSLRLSCAASGFSLSSHSLGWVRQAPGKGLEWIGDIRSGGSAYYANWAKGRFTISRDNSKNTLYLQMNSLRAEDTAVYYCTRTNGPSDLTNRLDLWGQGTLVTVSS
VL: QVLTQSPSSLSASVGDRVTINCQASQSLYNNENLAWFQQKPGKVPKRLIYGASTLASGVSSRFSGSGSGTEFTLTISSLQCEDFAIYYCLGEFSCGSADCFAFGGGTKVEIK
notes: mouse chimeric antibody #2 (mouse IgG constant regions) + resiquimod derivative, SATA and SMCC linkers
Consider B7, for which, in experiment [1], the binding result is reported as “binds”.

B8: Conjugate 26 (antibody, human IgG1, V domains shown)
VH: EQSLVESGGGLVQPGGSLRLSCAASGFSLSSHSLGWVRQAPGKGLEWIGDIRSGGSAYYANWAKGRFTISRDNSKNTLYLQMNSLRAEDTAVYYCTRTNGPSDLTNRLDLWGQGTLVTVSS
VL: QVLTQSPSSLSASVGDRVTINCQASQSLYNNENLAWFQQKPGKVPKRLIYGASTLASGVSSRFSGSGSGTEFTLTISSLQCEDFAIYYCLGEFSCGSADCFAFGGGTKVEIK
notes: humanized antibody #6 (V regions of #2; human IgG1 S239D/I332E) + resiquimod derivative, SATA and SMCC linkers
As for B8, the binding result in experiment [2] is recorded as “binds”.

B9: Conjugate 12 (antibody, human IgG1, V domains shown)
VH: EQSLVESGGGLVQPGGSLRLSCAASGFSLSSHSLGWVRQAPGKGLEWIGDIRSGGSAYYANWAKGRFTISRDNSKNTLYLQMNSLRAEDTAVYYCTRTNGPSDLTNRLDLWGQGTLVTVSS
VL: QVLTQSPSSLSASVGDRVTINCQASQSLYNNENLAWFQQKPGKVPKRLIYGASTLASGVSSRFSGSGSGTEFTLTISSLQCEDFAIYYCLGEFSCGSADCFAFGGGTKVEIK
notes: humanized antibody #6 (V regions of #2; human IgG1 S239D/I332E) + resiquimod, MC-Val-Cit-PAB linker
On to B9, for which, in experiment [2], the binding result was “binds”.

B10: Conjugate 22 (antibody, human IgG1, V domains shown)
VH: EQSLVESGGGLVQPGGSLRLSCAASGFSLSSHSLGWVRQAPGKGLEWIGDIRSGGSAYYANWAKGRFTISRDNSKNTLYLQMNSLRAEDTAVYYCTRTNGPSDLTNRLDLWGQGTLVTVSS
VL: QVLTQSPSSLSASVGDRVTINCQASQSLYNNENLAWFQQKPGKVPKRLIYGASTLASGVSSRFSGSGSGTEFTLTISSLQCEDFAIYYCLGEFSCGSADCFAFGGGTKVEIK
notes: humanized antibody #2 (human IgG1) + resiquimod derivative, SATA and SMCC linkers
For the molecule B10, the binding result in experiment [2] is “binds”.
